This data set deals with Escherichia coli TOP10. Kind of data set: shrunken log2 fold change of peptide-encoding DNA abundance (4.5 h post-induction vs induction); higher = less antimicrobial activity (less host growth inhibition). The settings on record: time post-induction: 4.5 h; library: site-saturation at positions 5, 18, 19, 20.
For the sequence RRIRQRPPRLPRPRPRPEWVPRP, the “shrunken log2 fold change” value was found to be 3.27.

With RRIRPRPPRLPRPRPRPKMVPRP, the “shrunken log2 fold change” value was 0.0319.

On to RRIRPRPPRLPRPRPRPMNQPRP, for which the “shrunken log2 fold change” value turned out to be 0.00354.

In the case of RRIRRRPPRLPRPRPRPIWTPRP, the “shrunken log2 fold change” value was 0.181.

RRIRNRPPRLPRPRPRPWRFPRP: the “shrunken log2 fold change” value is -0.0929.

RRIRERPPRLPRPRPRPKANPRP: the “shrunken log2 fold change” value amounted to 0.0174.

As for RRIRTRPPRLPRPRPRPPKKPRP, the “shrunken log2 fold change” value was 0.0946.

As to RRIRYRPPRLPRPRPRPKCDPRP, the “shrunken log2 fold change” value was -0.529.

As to RRIRQRPPRLPRPRPRPNLLPRP, the “shrunken log2 fold change” value is -0.0134.

Turning to RRIRYRPPRLPRPRPRPSFRPRP, the “shrunken log2 fold change” value was -0.59.

For the sequence RRIRLRPPRLPRPRPRPGFWPRP, the “shrunken log2 fold change” value was found to be 0.406.

Consider RRIRYRPPRLPRPRPRPAENPRP, for which the “shrunken log2 fold change” value is -0.317.

RRIRRRPPRLPRPRPRPYPEPRP: the “shrunken log2 fold change” value amounted to 0.00427.

For RRIRGRPPRLPRPRPRPAYSPRP, the “shrunken log2 fold change” value is -0.0128.

RRIRKRPPRLPRPRPRPCMDPRP: the “shrunken log2 fold change” value is -0.122.

Consider RRIRTRPPRLPRPRPRPWCPPRP, for which the “shrunken log2 fold change” value is -0.139.

Regarding RRIRRRPPRLPRPRPRPMIYPRP, the “shrunken log2 fold change” value is -0.305.

For the sequence RRIRYRPPRLPRPRPRPLETPRP, the “shrunken log2 fold change” value was -0.0196.

Take RRIRLRPPRLPRPRPRPHDRPRP: the “shrunken log2 fold change” value is -0.132.

As for RRIRGRPPRLPRPRPRPGFQPRP, the “shrunken log2 fold change” value came to 0.157.

As for RRIRDRPPRLPRPRPRPNEGPRP, the “shrunken log2 fold change” value was -0.000567.

Take RRIRMRPPRLPRPRPRPGKCPRP: the “shrunken log2 fold change” value was -0.0233.

In the case of RRIRLRPPRLPRPRPRPECHPRP, the “shrunken log2 fold change” value came to 0.0679.

Take RRIRPRPPRLPRPRPRPKVEPRP: the “shrunken log2 fold change” value was 0.00158.

Take RRIRFRPPRLPRPRPRPYFQPRP: the “shrunken log2 fold change” value is -1.44.

With RRIRYRPPRLPRPRPRPVWFPRP, the “shrunken log2 fold change” value was -0.129.

With RRIRLRPPRLPRPRPRPSPFPRP, the “shrunken log2 fold change” value was -0.183.

In the case of RRIRARPPRLPRPRPRPGVRPRP, the “shrunken log2 fold change” value is 0.797.

As for RRIRKRPPRLPRPRPRPWQFPRP, the “shrunken log2 fold change” value was 0.157.

With RRIRHRPPRLPRPRPRPYWWPRP, the “shrunken log2 fold change” value is -0.196.

For the sequence RRIRPRPPRLPRPRPRPFWKPRP, the “shrunken log2 fold change” value is 0.0756.

With RRIRNRPPRLPRPRPRPKDDPRP, the “shrunken log2 fold change” value was determined as 0.0456.

As to RRIRTRPPRLPRPRPRPCHGPRP, the “shrunken log2 fold change” value was -0.0399.

RRIRCRPPRLPRPRPRPSMCPRP: the “shrunken log2 fold change” value was -0.14.

Turning to RRIRKRPPRLPRPRPRPMHRPRP, the “shrunken log2 fold change” value turned out to be 0.0595.

As to RRIRFRPPRLPRPRPRPHVQPRP, the “shrunken log2 fold change” value was -0.0901.

Consider RRIRPRPPRLPRPRPRPHHRPRP, for which the “shrunken log2 fold change” value is -0.118.

On to RRIRGRPPRLPRPRPRPEHHPRP, for which the “shrunken log2 fold change” value amounted to 0.262.

For the sequence RRIRNRPPRLPRPRPRPLVCPRP, the “shrunken log2 fold change” value is -0.201.

In the case of RRIRARPPRLPRPRPRPYSEPRP, the “shrunken log2 fold change” value is -0.339.

As for RRIRQRPPRLPRPRPRPLNGPRP, the “shrunken log2 fold change” value was -0.128.

Take RRIRYRPPRLPRPRPRPPHTPRP: the “shrunken log2 fold change” value was -0.656.

Turning to RRIRMRPPRLPRPRPRPGFIPRP, the “shrunken log2 fold change” value was 0.192.

Regarding RRIRCRPPRLPRPRPRPSINPRP, the “shrunken log2 fold change” value is -0.86.

As for RRIRERPPRLPRPRPRPVAYPRP, the “shrunken log2 fold change” value was -0.178.

As to RRIRTRPPRLPRPRPRPECMPRP, the “shrunken log2 fold change” value was determined as 0.378.

For RRIRARPPRLPRPRPRPMAWPRP, the “shrunken log2 fold change” value was found to be 0.662.

Regarding RRIRSRPPRLPRPRPRPTNHPRP, the “shrunken log2 fold change” value was -0.344.

For the sequence RRIRRRPPRLPRPRPRPYENPRP, the “shrunken log2 fold change” value is -0.374.

With RRIRARPPRLPRPRPRPDAYPRP, the “shrunken log2 fold change” value stood at 0.522.

As for RRIRPRPPRLPRPRPRPPLPPRP, the “shrunken log2 fold change” value came out at 0.814.

On to RRIRWRPPRLPRPRPRPERGPRP, for which the “shrunken log2 fold change” value turned out to be 0.683.

Regarding RRIRTRPPRLPRPRPRPCHQPRP, the “shrunken log2 fold change” value is -0.172.

As for RRIRKRPPRLPRPRPRPDFIPRP, the “shrunken log2 fold change” value is -0.209.

For RRIRKRPPRLPRPRPRPMLRPRP, the “shrunken log2 fold change” value came to 0.308.

Consider RRIRKRPPRLPRPRPRPCLQPRP, for which the “shrunken log2 fold change” value was determined as 0.194.

For the sequence RRIRERPPRLPRPRPRPYKFPRP, the “shrunken log2 fold change” value is -0.835.

With RRIRSRPPRLPRPRPRPNEMPRP, the “shrunken log2 fold change” value is -0.252.

Regarding RRIRPRPPRLPRPRPRPPEHPRP, the “shrunken log2 fold change” value amounted to 0.0484.

Regarding RRIRKRPPRLPRPRPRPQFGPRP, the “shrunken log2 fold change” value is 0.0962.

As to RRIRLRPPRLPRPRPRPYCWPRP, the “shrunken log2 fold change” value is -0.37.

Regarding RRIRIRPPRLPRPRPRPLHEPRP, the “shrunken log2 fold change” value was -0.191.

As to RRIRVRPPRLPRPRPRPCIHPRP, the “shrunken log2 fold change” value came to 0.0261.

RRIRGRPPRLPRPRPRPTLSPRP: the “shrunken log2 fold change” value turned out to be 0.313.

With RRIRWRPPRLPRPRPRPTLPPRP, the “shrunken log2 fold change” value came out at 0.128.

In the case of RRIRIRPPRLPRPRPRPIWSPRP, the “shrunken log2 fold change” value was determined as 0.025.

For RRIRNRPPRLPRPRPRPRRIPRP, the “shrunken log2 fold change” value was 0.0821.

Turning to RRIRMRPPRLPRPRPRPARPPRP, the “shrunken log2 fold change” value was found to be 1.09.

Consider RRIRSRPPRLPRPRPRPFCCPRP, for which the “shrunken log2 fold change” value was -0.14.

For the sequence RRIRWRPPRLPRPRPRPDYDPRP, the “shrunken log2 fold change” value was -0.246.

On to RRIRWRPPRLPRPRPRPNMFPRP, for which the “shrunken log2 fold change” value is -0.0911.

As to RRIRTRPPRLPRPRPRPRCYPRP, the “shrunken log2 fold change” value is -0.429.

On to RRIRVRPPRLPRPRPRPLFCPRP, for which the “shrunken log2 fold change” value was -0.103.

Turning to RRIRKRPPRLPRPRPRPYGYPRP, the “shrunken log2 fold change” value is -0.0282.

Turning to RRIRLRPPRLPRPRPRPGLKPRP, the “shrunken log2 fold change” value turned out to be 0.12.

With RRIRNRPPRLPRPRPRPIDFPRP, the “shrunken log2 fold change” value was -0.413.

Regarding RRIRLRPPRLPRPRPRPPFYPRP, the “shrunken log2 fold change” value is -0.185.

RRIRHRPPRLPRPRPRPSEHPRP: the “shrunken log2 fold change” value was found to be 0.00525.

On to RRIRVRPPRLPRPRPRPIGDPRP, for which the “shrunken log2 fold change” value is 0.0238.

In the case of RRIRCRPPRLPRPRPRPFAKPRP, the “shrunken log2 fold change” value was -0.108.

With RRIRQRPPRLPRPRPRPCALPRP, the “shrunken log2 fold change” value is 0.0342.

As to RRIRMRPPRLPRPRPRPMFKPRP, the “shrunken log2 fold change” value was found to be 0.0609.

Consider RRIRMRPPRLPRPRPRPFPQPRP, for which the “shrunken log2 fold change” value came out at 0.103.

On to RRIRERPPRLPRPRPRPRWRPRP, for which the “shrunken log2 fold change” value was 0.706.

RRIRRRPPRLPRPRPRPIERPRP: the “shrunken log2 fold change” value stood at 0.0771.

RRIRPRPPRLPRPRPRPYFLPRP: the “shrunken log2 fold change” value is -0.614.

Turning to RRIRRRPPRLPRPRPRPGWDPRP, the “shrunken log2 fold change” value stood at 0.0298.

For RRIRCRPPRLPRPRPRPDKIPRP, the “shrunken log2 fold change” value is -0.24.

Turning to RRIRMRPPRLPRPRPRPGMPPRP, the “shrunken log2 fold change” value turned out to be 0.522.

For the sequence RRIRGRPPRLPRPRPRPLMYPRP, the “shrunken log2 fold change” value is -0.00226.

In the case of RRIRRRPPRLPRPRPRPKAIPRP, the “shrunken log2 fold change” value worked out at 0.111.

As for RRIRARPPRLPRPRPRPNMSPRP, the “shrunken log2 fold change” value amounted to 0.12.

As to RRIRCRPPRLPRPRPRPQGDPRP, the “shrunken log2 fold change” value was 0.0138.

For RRIRIRPPRLPRPRPRPWCLPRP, the “shrunken log2 fold change” value was -1.11.

Turning to RRIRERPPRLPRPRPRPAVKPRP, the “shrunken log2 fold change” value is -0.0221.

With RRIRCRPPRLPRPRPRPYHHPRP, the “shrunken log2 fold change” value was -0.746.

In the case of RRIRYRPPRLPRPRPRPEQKPRP, the “shrunken log2 fold change” value was 0.0039.

Take RRIRHRPPRLPRPRPRPITPPRP: the “shrunken log2 fold change” value is -0.538.

As to RRIRGRPPRLPRPRPRPALGPRP, the “shrunken log2 fold change” value stood at 1.11.

RRIRNRPPRLPRPRPRPYMTPRP: the “shrunken log2 fold change” value was -0.509.

In the case of RRIRERPPRLPRPRPRPPYIPRP, the “shrunken log2 fold change” value is -0.252.

With RRIRSRPPRLPRPRPRPQFSPRP, the “shrunken log2 fold change” value is -0.152.

Turning to RRIRYRPPRLPRPRPRPWFDPRP, the “shrunken log2 fold change” value was -0.415.

As to RRIRGRPPRLPRPRPRPRAVPRP, the “shrunken log2 fold change” value worked out at 1.

For RRIRLRPPRLPRPRPRPWIVPRP, the “shrunken log2 fold change” value is -0.0907.

For the sequence RRIRKRPPRLPRPRPRPYWHPRP, the “shrunken log2 fold change” value was -0.684.

RRIRMRPPRLPRPRPRPLIIPRP: the “shrunken log2 fold change” value is -0.249.

With RRIRMRPPRLPRPRPRPINIPRP, the “shrunken log2 fold change” value was -0.0393.

In the case of RRIRHRPPRLPRPRPRPCTWPRP, the “shrunken log2 fold change” value is -0.0924.

Regarding RRIRDRPPRLPRPRPRPIRLPRP, the “shrunken log2 fold change” value came to 0.015.

RRIRDRPPRLPRPRPRPAMYPRP: the “shrunken log2 fold change” value is -0.0257.

Consider RRIRWRPPRLPRPRPRPAQRPRP, for which the “shrunken log2 fold change” value was found to be 0.418.

Take RRIRQRPPRLPRPRPRPHCLPRP: the “shrunken log2 fold change” value worked out at 0.0735.

For the sequence RRIRCRPPRLPRPRPRPHHNPRP, the “shrunken log2 fold change” value was -0.901.

As for RRIRPRPPRLPRPRPRPANTPRP, the “shrunken log2 fold change” value was -0.224.

Turning to RRIRLRPPRLPRPRPRPRQPPRP, the “shrunken log2 fold change” value is 0.111.

Regarding RRIRKRPPRLPRPRPRPQVCPRP, the “shrunken log2 fold change” value amounted to 0.138.

Regarding RRIRARPPRLPRPRPRPPMSPRP, the “shrunken log2 fold change” value worked out at 0.414.

Take RRIRNRPPRLPRPRPRPCFPPRP: the “shrunken log2 fold change” value was -0.312.

Regarding RRIRTRPPRLPRPRPRPWCDPRP, the “shrunken log2 fold change” value is -0.596.

Take RRIRSRPPRLPRPRPRPFRWPRP: the “shrunken log2 fold change” value came to 0.119.

Take RRIRHRPPRLPRPRPRPMQQPRP: the “shrunken log2 fold change” value is -0.174.

As to RRIRARPPRLPRPRPRPCIVPRP, the “shrunken log2 fold change” value was -0.233.

In the case of RRIRDRPPRLPRPRPRPQHFPRP, the “shrunken log2 fold change” value was -0.422.

For the sequence RRIRVRPPRLPRPRPRPNSMPRP, the “shrunken log2 fold change” value is -0.575.
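Also: peptides expressed intracellularly from a pBAD plasmid library in pooled LB shake-flask culture, induced with 0.3% L-arabinose, DNA abundance read by NGS, three biological replicates, DESeq2 with apeglm shrinkage.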
